According to patent publication US20150196533A1, “METHOD FOR CONCURRENT TREATMENT OF PAIN AND DEPRESSION” (The General Hospital Corporation, priority 2012, published 2015):
“Also recorded” adds a separate entry of the source.

Legend:
naive rats = assay: Intra-hippocampal microinjection in naive rats: nociceptive and depressive behavior; format: in vivo, rat; conditions: 0.1 μg once daily x 7 d into the left hippocampus of naive rats
Description: Under brief isoflurane anesthesia, a guide cannula (26 gauge, Plasticsone) was implanted just above the hippocampus (AP: −3.6 mm; left: +2.0 mm from Bregma; depth: −4.0 mm from skin) (Paxinos, G., and Watson, C. 1998. The rat brain in stertaxic coordinates. New York: Academic Press). An injection needle (33 gauge, Plasticsone) was inserted through the guide cannula and drug solution or vehicle (0.5 μl) was slowly injected over 5 min using a Hamilton syringe. Locations of the cannula placement were confirmed at the time of tissue harvest (data not shown).
Animals were habituated to a test setting (30-min session) for three consecutive days. Thermal withdrawal threshold was assessed using the Hargreaves' apparatus and method (Hargreaves, K., et al., 1988. A new and sensitive method for measuring thermal nociception in cutaneous hyperalgesia. Pain 32:77-88). Mechanical withdrawal threshold was assessed using von Frey filaments (Tal, M., and Bennett, G. J. 1994. Extra-territorial pain in rats with a peripheral mononeuropathy: mechano-hyperalgesia and mechano-allodynia in the territory of an uninjured nerve. Pain 57:375-382).
FST was performed according to the original method by Porsolt et al (Porsolt, R. D., Le, P. M., and Jalfre, M. 1977. Depression: a new animal model sensitive to antidepressant treatments. Nature 266:730-732). The total duration of immobility (non-swimming) within a 5-min session was recorded as immobility scores (in seconds) and compared among groups.

[1] = test system: IDO1 expression in hippocampal organotypic slice culture; assay: IL-6 exposure of organotypic hippocampal slice culture: IDO1 expression and activity; format: cell-based, rat; conditions: 100 ng/ml for 24 hours
Text: According to a modified method (Stoppini, L., Buchs, P. A., and Muller, D. 1991. A simple method for organotypic cultures of nervous tissue. J Neurosci. Methods 37:173-182.; Fu, X., Zunich, S. M., O'Connor, J. C., Kavelaars, A., Dantzer, R., and Kelley, K. W. 2010. Central administration of lipopolysaccharide induces depressive-like behavior in vivo and activates brain indoleamine 2,3 dioxygenase in murine organotypic hippocampal slice cultures. J Neuroinflammation. 7:43) organotypic hippocampal cultures were prepared using hippocampus slices from 5 to 8-day-old Wistar rats. Rat pups were euthanized by decapitation and brains were rapidly removed and the hippocampus was separated from the brain. Hippocampal slices (350 μm in thickness) were made using a Mcllwain tissue chopper (Campden Instruments Ltd) and placed in the Gey's balanced salt solution (Sigma-Aldrich) with 2 mg/ml D-glucose. Slices were then placed on 30-mm Millicell-CM (Millipore) porous (0.4 μm) membranes. These membranes were transferred into six-well culture plates filled with an incubation medium (1 ml) consisting of 50% vol/vol minimal essential medium, 25% heat-inactivated horse serum and 25% HBSS (Invitrogen), supplemented with 25 mM D-glucose. Plates were incubated in a humidified atmosphere of 5% CO2 and 95% air at 37° C. Culture medium was changed 3 times a week. Slices were treated with 100 ng/ml IL-6 or vehicle and collected 24 hours later for assays (Hakkoum, D., Stoppini, L., and Muller, D. 2007. Interleukin-6 promotes sprouting and functional recovery in lesioned organotypic hippocampal slice cultures. J Neurochem. 100:747-757).
Rats were sacrificed under pentobarbital anesthesia. The hippocampus was separated from the brain and immediately stored on dry ice and kept at −80° C. until use. Samples were homogenized in a lysis buffer with SDS containing a cocktail of proteinase inhibitors (Roche). Samples were separated on an SDS-PAGE gel (4%-15% gradient gel; Bio-Rad) and transferred to polyvinylidene difluoride filter (PVDF) membranes (Millipore). Membranes were blocked with 5% nonfat dried milk for 1 hour at room temperature and incubated over night at 4° C. on a rocker with one of following primary antibody: 1:200 IDO1 (Santa Cruz Biotechnology Inc.; rabbit polyclonal antibody), 1:200 IDO1 (Novius Biologicals; rabbit polyclonal antibody), 1:500 JAK2 (Santa Cruz Biotechnology Inc.; rabbit polyclonal antibody), 1:1,000 STAT3 (Millipore; rabbit polyclonal antibody), 1:5,000 p-STAT3 (Abcam; rabbit monoclonal antibody). After membranes were washed with PBS×4, membranes were incubated with 1:8,000 HRP conjugated secondary antibody (Amersham, Biosciences) for 1 hour at room temperature on a rocker. The membranes were washed with PBS×4 and blots were visualized in enhanced Chemiluminescent (ECL) solution (Pierce) for 5 minutes and exposed to hyperfilms (Kodak) for 15 minutes. Blots were again incubated in a Stripping buffer (Pierce) for 15 minutes at room temperature on a rocker and reprobed with 1:12,000 anti-β-actin antibody (Abeam Inc.) as a loading control. Western blots were made in triplicates. Band density was measured and normalized against a loading control band.
Total RNA was isolated from hippocampal samples using TRIzol reagent (Invitrogen). […] Taqman Gene Expression Assays (Applied Biosystems) containing primers and a Taqman probe were used to quantify each gene of interest. […]

B1: IL-6: exogenous IL-6 (recombinant rat IL-6), proinflammatory cytokine (protein, UniProt P20607 25-211, looked up)
Interleukin-6: FPTSQVRRGDFTEDTTHNRPVYTTSQVGGLITYVLREILEMRKELCNGNSDCMNSDDALSENNLKLPEIQRNDGCFQTGYNQEICLLKICSGLLEFRFYLEFVKNNLQDNKKDKARVIQSNTETLVHIFKQEIKDSYKIVLPTPTSNALLMEKLESQKEWLRTKTIQLILKALEEFLKVTMRSTRQT
Naive rats; P<0.001
  depressive behavior in forced swimming test (FIG. 9G): induced depressive behavior in forced swimming test
Naive rats; P<0.01
  thermal hyperalgesia on the right hindpaw (FIG. 9F): induced
Naive rats; P<0.05 vs vehicle
  mechanical allodynia on the right hindpaw (FIG. 9E): induced
[1]
  IDO1 immunoreactivity (FIG. 8F): increased IDO1 immunoreactivity; also recorded: increased the expression of IDO1
[1]; P<0.05
  IDO1 mRNA expression (real-time PCR; FIG. 8G): up-regulated; also recorded: increased the expression of IDO1
  IDO1 protein expression (Western blot; FIG. 8H): up-regulated; also recorded: increased the expression of IDO1
  kynurenine/tryptophan ratio in the culture medium (HPLC; FIG. 8I): significantly increased; also recorded: increased KYN/TRP ratio
  serotonin/tryptophan ratio in the culture medium (HPLC; FIG. 8I): decreased 5-HT/TRP ratio
